From paper PMC3998512 (DNA repair, 2013)

Experiments:
[1] = biological target: His tagged human PCNA (human, UniProt P12004 1-261); test: far-Western, overlay or dot blot
[2] = biological target: GST tagged human Cdk1 (human, UniProt P06493 1-297); test: far-Western, overlay or dot blot
Sequence of GST tagged human Cdk1 (P06493 whole entry): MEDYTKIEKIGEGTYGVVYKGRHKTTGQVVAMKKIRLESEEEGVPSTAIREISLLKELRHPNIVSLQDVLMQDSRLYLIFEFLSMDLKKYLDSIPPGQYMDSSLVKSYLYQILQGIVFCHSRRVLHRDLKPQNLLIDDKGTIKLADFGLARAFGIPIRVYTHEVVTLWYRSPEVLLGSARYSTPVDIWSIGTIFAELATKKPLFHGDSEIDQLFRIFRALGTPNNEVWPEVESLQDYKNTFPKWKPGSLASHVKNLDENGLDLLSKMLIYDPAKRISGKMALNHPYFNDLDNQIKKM

Sequence of His tagged human PCNA (P12004 whole entry): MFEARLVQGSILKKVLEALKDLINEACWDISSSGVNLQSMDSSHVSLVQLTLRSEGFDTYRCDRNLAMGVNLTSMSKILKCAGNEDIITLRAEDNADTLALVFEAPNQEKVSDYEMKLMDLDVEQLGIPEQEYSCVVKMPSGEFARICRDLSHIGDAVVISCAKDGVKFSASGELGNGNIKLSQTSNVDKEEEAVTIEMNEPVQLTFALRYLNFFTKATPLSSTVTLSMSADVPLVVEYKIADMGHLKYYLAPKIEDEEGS

B1: human recombinant Δ80AAG (AAG lacking the first 80 amino acids) (domain or fragment, UniProt P29372 81-298, looked up)
chain: GHLTRLGLEFFDQPAVPLARAFLGQVLVRRLPNGTELRGRIVETEAYLGPEDEAAHSRGGRQTPRNRGMFMKPGTLYVYIIYGMYFCMNISSQGDGACVLLRALEPLEGLETMRQLRSTLRKGTASRVLKDRELCSGPSKLCQALAINKSFDQRDLAQDEAVWLERGPLEPSEPAVVAAARVGVGHAGEWARKPLRFYVRGSPWVSVVDRVAEQDTQA
B1: binds [1].

B2: His tagged human Δ16mtSSB (mtSSB lacking 16 N-terminal amino acids) (natural protein, UniProt Q04837 17-148, looked up)
chain: ESETTTSLVLERSLNRVHLLGRVGQDPVLRQVEGKNPVTIFSLATNEMWRSGDSEVYQLGDVSQKTTWHRISVFRPGLRDVAYQYVKKGSRIYLEGKIDYGEYMDKNNVRRQATTIIADNIIFLSDQTKEKE
B2: binds [2].
